From article doi:10.1101/2025.06.12.659319

Tests used:
[1] = target: FITC-ΔNp63α NLSbip peptide (residues 278-302) (human); assay: fluorescence polarisation
[2] = target: T1, ΔNp63α (RLuc- and YFP-fusions, full length) (human), Q9H3D4; assay: FRET or BRET; settings: remark: other sources report otherwise
T1 chain: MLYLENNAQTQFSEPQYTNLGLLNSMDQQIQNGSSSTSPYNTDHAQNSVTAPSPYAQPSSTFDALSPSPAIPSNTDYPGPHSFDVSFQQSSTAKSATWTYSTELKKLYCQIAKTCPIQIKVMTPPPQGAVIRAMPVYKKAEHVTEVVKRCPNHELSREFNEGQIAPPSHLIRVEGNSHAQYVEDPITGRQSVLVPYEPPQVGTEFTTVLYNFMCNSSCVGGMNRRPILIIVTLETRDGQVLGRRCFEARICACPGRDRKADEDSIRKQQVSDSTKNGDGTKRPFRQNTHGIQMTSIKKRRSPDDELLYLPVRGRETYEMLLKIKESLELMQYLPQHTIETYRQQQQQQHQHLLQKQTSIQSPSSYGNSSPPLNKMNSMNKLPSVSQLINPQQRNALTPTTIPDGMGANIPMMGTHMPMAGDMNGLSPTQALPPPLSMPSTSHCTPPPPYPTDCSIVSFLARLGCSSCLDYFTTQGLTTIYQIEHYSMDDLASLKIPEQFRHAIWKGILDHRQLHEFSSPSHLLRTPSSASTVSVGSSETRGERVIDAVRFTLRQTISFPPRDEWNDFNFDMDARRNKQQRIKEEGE

Molecule	Kd [1]	BRET ratio [2]
human IMPα7ΔIBB (importin α7 lacking the IMPβ1 binding domain) (domain or fragment)	4.6 nM	–
human IMPα1ΔIBB (importin α1 lacking the IMPβ1 binding domain) (domain or fragment)	4.3 nM	–
human IMPα3ΔIBB (importin α3 lacking the IMPβ1 binding domain) (domain or fragment)	6.7 nM	–
ΔNp63α (RLuc- and YFP-fusions, full length), Q9H3D4-2 1-586 (natural protein) MLYLENNAQTQFSEPQYTNLGLLNSMDQQIQNGSSSTSPYNTDHAQNSVTAPSPYAQPSSTFDALSPSPAIPSNTDYPGPHSFDVSFQQSSTAKSATWTYSTELKKLYCQIAKTCPIQIKVMTPPPQGAVIRAMPVYKKAEHVTEVVKRCPNHELSREFNEGQIAPPSHLIRVEGNSHAQYVEDPITGRQSVLVPYEPPQVGTEFTTVLYNFMCNSSCVGGMNRRPILIIVTLETRDGQVLGRRCFEARICACPGRDRKADEDSIRKQQVSDSTKNGDGTKRPFRQNTHGIQMTSIKKRRSPDDELLYLPVRGRETYEMLLKIKESLELMQYLPQHTIETYRQQQQQQHQHLLQKQTSIQSPSSYGNSSPPLNKMNSMNKLPSVSQLINPQQRNALTPTTIPDGMGANIPMMGTHMPMAGDMNGLSPTQALPPPLSMPSTSHCTPPPPYPTDCSIVSFLARLGCSSCLDYFTTQGLTTIYQIEHYSMDDLASLKIPEQFRHAIWKGILDHRQLHEFSSPSHLLRTPSSASTVSVGSSETRGERVIDAVRFTLRQTISFPPRDEWNDFNFDMDARRNKQQRIKEEGE	–	0.18
